Laboratory results: patent US20210146029A1

Biological target: sTNF-R1 (soluble Tumor Necrosis Factor Receptor 1), spiked into buffer or human plasma (UniProt P19438)
Experiment: column run with spiked human plasma (9.74 ng/mL sTNF-R1), pre- against post-column concentration at each time point

Sequence of UniProt P19438 (P19438 30-211 limits assumed): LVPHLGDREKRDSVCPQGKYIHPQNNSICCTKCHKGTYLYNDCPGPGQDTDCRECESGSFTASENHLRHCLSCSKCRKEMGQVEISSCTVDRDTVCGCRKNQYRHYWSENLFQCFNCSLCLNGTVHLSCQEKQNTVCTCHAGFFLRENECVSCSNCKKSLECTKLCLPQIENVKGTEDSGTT

Substance: recombinant single chain TNFα ligand (sc-TNFα ligand, comprising 3 TNFα monomers), covalently linked to agarose beads
- binding efficiency: > 95%
